Results reported in IntAct's records for PubMed 10660620.

B1: Paired immunoglobulin-like type 2 receptor alpha (Homo sapiens), Q9UKJ1 (parent)
chain: MGRPLLLPLLPLLLPPAFLQPSGSTGSGPSYLYGVTQPKHLSASMGGSVEIPFSFYYPWELATAPDVRISWRRGHFHRQSFYSTRPPSIHKDYVNRLFLNWTEGQKSGFLRISNLQKQDQSVYFCRVELDTRSSGRQQWQSIEGTKLSITQAVTTTTQRPSSMTTTWRLSSTTTTTGLRVTQGKRRSDSWHISLETAVGVAVAVTVLGIMILGLICLLRWRRRKGQQRTKATTPAREPFQNTEEPYENIRNEGQNTDPKLNPKDDGIVYASLALSSSTSPRAPPSHRPLKSPQNETLYSVLKA

Variants of: B1
Settings: with ptn6_human PTPN6, P29350
Chain of ptn6_human PTPN6, P29350 (P29350 whole entry): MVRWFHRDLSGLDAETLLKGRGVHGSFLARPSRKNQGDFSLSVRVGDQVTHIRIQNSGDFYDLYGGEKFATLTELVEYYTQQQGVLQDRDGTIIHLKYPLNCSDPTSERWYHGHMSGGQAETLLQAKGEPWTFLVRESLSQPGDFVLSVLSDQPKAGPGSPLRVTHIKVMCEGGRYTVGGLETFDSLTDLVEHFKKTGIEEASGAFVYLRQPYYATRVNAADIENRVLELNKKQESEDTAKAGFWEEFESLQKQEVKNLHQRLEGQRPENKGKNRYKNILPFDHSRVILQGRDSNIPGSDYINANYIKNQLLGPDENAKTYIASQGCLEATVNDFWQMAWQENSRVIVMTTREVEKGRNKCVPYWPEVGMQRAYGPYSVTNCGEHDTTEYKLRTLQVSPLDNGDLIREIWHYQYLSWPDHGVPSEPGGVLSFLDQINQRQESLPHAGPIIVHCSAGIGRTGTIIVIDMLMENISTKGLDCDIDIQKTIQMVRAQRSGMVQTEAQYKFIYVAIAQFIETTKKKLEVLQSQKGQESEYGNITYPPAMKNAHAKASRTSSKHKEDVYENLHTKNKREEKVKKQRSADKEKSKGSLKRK

Row | effect of a mutation on the interaction | Variant
1 | decreasing interaction | Y269F
2 | decreasing interaction | Y269F;Y298F
